Measured values: paper PMC6497270, “Thermodynamic investigation of DNA-binding affinity of wild-type and mutant transcription factor RUNX1”

What was measured:
[1] = target: RUNX1 K83E;CBFβ (Homo sapiens;Homo sapiens?, UniProt Q01196;Q13951 1-181;1-141, K83E|); test: ITC; RUNX1:CBFβ 1:2; no significant enthalpy change; ITC: 20 uM RUNX1 in cell, 100 uM DNA in syringe, 10 mM HEPES-NaOH pH 7.5, 180 mM NaCl, 0.005% Tween 20; temperature stated as 277 K (Methods) but 25 °C (Results); details: protein: recombinant;recombinant; tags: N-terminal His6;; copies: 1;1; (21 bp)
[2] = target: RUNX1 K83R (Homo sapiens, UniProt Q01196 1-181, K83R); test: ITC; without CBFβ; ITC: 20 uM RUNX1 in cell, 100 uM DNA in syringe, 10 mM HEPES-NaOH pH 7.5, 180 mM NaCl, 0.005% Tween 20; temperature stated as 277 K (Methods) but 25 °C (Results); details: protein: recombinant; tags: N-terminal His6; (21 bp)
[3] = target: RUNX1 K83R/H179K (Homo sapiens, UniProt Q01196 1-181, K83R;H179K); test: as above; details: protein: recombinant; tags: N-terminal His6; (21 bp)
[4] = target: RUNX1 H179K (Homo sapiens, UniProt Q01196 1-181, H179K); test: as above; details: protein: recombinant; tags: N-terminal His6; (21 bp)
[5] = target: RUNX1 R139Q (Homo sapiens, UniProt Q01196 1-181, R139Q); test: as above; details: protein: recombinant; tags: N-terminal His6; (21 bp)
[6] = target: RUNX1 WT (RUNT-containing) (Homo sapiens, UniProt Q01196 1-181); test: as above; details: protein: recombinant; tags: N-terminal His6; (21 bp)
[7] = target: RUNX1 S114L (Homo sapiens, UniProt Q01196 1-181, S114L); test: as above; details: protein: recombinant; tags: N-terminal His6; (21 bp)
[8] = target: RUNX1 K83E (Homo sapiens, UniProt Q01196 1-181, K83E); test: ITC; without CBFβ; no significant enthalpy change; ITC: 20 uM RUNX1 in cell, 100 uM DNA in syringe, 10 mM HEPES-NaOH pH 7.5, 180 mM NaCl, 0.005% Tween 20; temperature stated as 277 K (Methods) but 25 °C (Results); details: protein: recombinant; tags: N-terminal His6; (21 bp)
[9] = target: RUNX1 R139Q;CBFβ (Homo sapiens;Homo sapiens?, UniProt Q01196;Q13951 1-181;1-141, R139Q|); test: ITC; RUNX1:CBFβ 1:2; ITC: 20 uM RUNX1 in cell, 100 uM DNA in syringe, 10 mM HEPES-NaOH pH 7.5, 180 mM NaCl, 0.005% Tween 20; temperature stated as 277 K (Methods) but 25 °C (Results); details: protein: recombinant;recombinant; tags: N-terminal His6;; copies: 1;1; (21 bp)
[10] = target: RUNX1 H179K;CBFβ (Homo sapiens;Homo sapiens?, UniProt Q01196;Q13951 1-181;1-141, H179K|); test: as above; details: protein: recombinant;recombinant; tags: N-terminal His6;; copies: 1;1; (21 bp)
[11] = target: RUNX1 WT (RUNT-containing);CBFβ (Homo sapiens;Homo sapiens?, UniProt Q01196;Q13951 1-181;1-141, |); test: as above; details: protein: recombinant;recombinant; tags: N-terminal His6;; copies: 1;1; (21 bp)
[12] = target: RUNX1 K83R/H179K;CBFβ (Homo sapiens;Homo sapiens?, UniProt Q01196;Q13951 1-181;1-141, K83R;H179K|); test: as above; details: protein: recombinant;recombinant; tags: N-terminal His6;; copies: 1;1; (21 bp)
[13] = target: RUNX1 S114L;CBFβ (Homo sapiens;Homo sapiens?, UniProt Q01196;Q13951 1-181;1-141, S114L|); test: as above; details: protein: recombinant;recombinant; tags: N-terminal His6;; copies: 1;1; (21 bp)
[14] = target: RUNX1 K83R;CBFβ (Homo sapiens;Homo sapiens?, UniProt Q01196;Q13951 1-181;1-141, K83R|); test: as above; details: protein: recombinant;recombinant; tags: N-terminal His6;; copies: 1;1; (21 bp)
Chain of RUNX1 K83R;CBFβ (Q01196 1-181 K83R, chain 1 of 2): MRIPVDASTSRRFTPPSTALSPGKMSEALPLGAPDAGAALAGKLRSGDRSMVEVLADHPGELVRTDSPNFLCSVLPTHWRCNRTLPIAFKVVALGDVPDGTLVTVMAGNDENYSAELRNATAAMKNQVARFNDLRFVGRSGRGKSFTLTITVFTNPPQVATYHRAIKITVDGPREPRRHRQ
Chain of RUNX1 K83R;CBFβ (Q13951 1-141, chain 2 of 2): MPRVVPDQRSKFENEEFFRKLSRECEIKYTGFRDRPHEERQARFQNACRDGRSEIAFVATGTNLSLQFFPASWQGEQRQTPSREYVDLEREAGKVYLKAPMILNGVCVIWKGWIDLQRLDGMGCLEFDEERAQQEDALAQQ

Chain of RUNX1 K83E;CBFβ (Q01196 1-181 K83E, chain 1 of 2): as the sequence (Q01196 1-181 K83R, chain 1 of 2) above, with R83E counted along it
Chain of RUNX1 K83E;CBFβ (Q13951 1-141, chain 2 of 2): as the sequence (Q13951 1-141, chain 2 of 2) above
Chain of RUNX1 K83E (Q01196 1-181 K83E): as the sequence (Q01196 1-181 K83R, chain 1 of 2) above, with R83E counted along it
Chain of RUNX1 K83R (Q01196 1-181 K83R): as the sequence (Q01196 1-181 K83R, chain 1 of 2) above
Chain of RUNX1 S114L;CBFβ (Q01196 1-181 S114L, chain 1 of 2): as the sequence (Q01196 1-181 K83R, chain 1 of 2) above, with R83K, S114L counted along it
Chain of RUNX1 S114L;CBFβ (Q13951 1-141, chain 2 of 2): as the sequence (Q13951 1-141, chain 2 of 2) above
Chain of RUNX1 S114L (Q01196 1-181 S114L): as the sequence (Q01196 1-181 K83R, chain 1 of 2) above, with R83K, S114L counted along it
Chain of RUNX1 WT (RUNT-containing);CBFβ (Q01196 1-181, chain 1 of 2): as the sequence (Q01196 1-181 K83R, chain 1 of 2) above, with R83K counted along it
Chain of RUNX1 WT (RUNT-containing);CBFβ (Q13951 1-141, chain 2 of 2): as the sequence (Q13951 1-141, chain 2 of 2) above
Chain of RUNX1 WT (RUNT-containing) (Q01196 1-181): as the sequence (Q01196 1-181 K83R, chain 1 of 2) above, with R83K counted along it
Chain of RUNX1 K83R/H179K;CBFβ (Q01196 1-181 K83R/H179K, chain 1 of 2): as the sequence (Q01196 1-181 K83R, chain 1 of 2) above, with H179K counted along it
Chain of RUNX1 K83R/H179K;CBFβ (Q13951 1-141, chain 2 of 2): as the sequence (Q13951 1-141, chain 2 of 2) above
Chain of RUNX1 K83R/H179K (Q01196 1-181 K83R/H179K): as the sequence (Q01196 1-181 K83R, chain 1 of 2) above, with H179K counted along it
Chain of RUNX1 H179K;CBFβ (Q01196 1-181 H179K, chain 1 of 2): as the sequence (Q01196 1-181 K83R, chain 1 of 2) above, with R83K, H179K counted along it
Chain of RUNX1 H179K;CBFβ (Q13951 1-141, chain 2 of 2): as the sequence (Q13951 1-141, chain 2 of 2) above
Chain of RUNX1 H179K (Q01196 1-181 H179K): as the sequence (Q01196 1-181 K83R, chain 1 of 2) above, with R83K, H179K counted along it
Chain of RUNX1 R139Q (Q01196 1-181 R139Q): as the sequence (Q01196 1-181 K83R, chain 1 of 2) above, with R83K, R139Q counted along it
Chain of RUNX1 R139Q;CBFβ (Q01196 1-181 R139Q, chain 1 of 2): as the sequence (Q01196 1-181 K83R, chain 1 of 2) above, with R83K, R139Q counted along it
Chain of RUNX1 R139Q;CBFβ (Q13951 1-141, chain 2 of 2): as the sequence (Q13951 1-141, chain 2 of 2) above

B1: CSF-1R promoter 21 bp DNA (dsDNA)
DNA 1: CAAACTCTGTGGTTGCCTTGC
DNA 2: GCAAGGCAACCACAGAGTTTG
**Q.** Does B1 bind [1]?
**A.** no binding

**Q.** What about the Kd [2] of the same binder?
**A.** 480 ± 150 nM

**Q.** And the Kd [3]?
**A.** 290 ± 50 nM

**Q.** What about the Kd [4] of the same binder?
**A.** 350 ± 120 nM

**Q.** And the Kd [5]?
**A.** 1480 ± 510 nM

**Q.** And the Kd [6]?
**A.** 490 ± 10 nM

**Q.** And the Kd [7]?
**A.** 700 ± 80 nM

**Q.** Does B1 bind [8]?
**A.** no binding

**Q.** What about the Kd [9] of the same binder?
**A.** 3350 ± 800 nM

**Q.** And the Kd [10]?
**A.** 100 ± 40 nM

**Q.** And the Kd [11]?
**A.** 230 ± 50 nM

**Q.** And the Kd [12]?
**A.** 73 ± 5 nM

**Q.** What about the Kd [13] of the same binder?
**A.** 390 ± 80 nM

**Q.** What about the Kd [14] of the same binder?
**A.** 160 ± 30 nM
